This is an account of results in patent US8067220B2, “Alternative crystal form of monoacylglycerol lipase (MGLL)” (Janssen Pharmaceutica N.V., priority 2008, dated 2011).

What is called Km is the concentration of substrate that gives half-maximal velocity.

Series [1] has as its system MGLL. The experiment in a line: Hydrolysis of coumarin arachidonate (C-A), apparent kcat/KM at [S]<<KM. It counts as biochemical, human. The following applies: estimated; limited by solubility of C-A. The source says:
(§1) A small fluorescent substrate, 4-methyl coumarin butyrate (4MC-B) was used to compare the activity of the engineered mutants to the activity of wt-MGLL (hMGLL 1-303) (SEQ ID NO: 3). The catalytic efficiency (kcat/KM) for the hydrolysis of the 4MC-B was similar for wt-MGLL (hMGLL 1-303) (SEQ ID NO: 3) and all MGLL mutants tested (Table 2). A larger more aliphatic fluorescent substrate, Coumarin Arachidonate (C-A), structurally more closely related to the MGLL natural substrate, 2-AG, was used to compare the activity of wt-MGLL (hMGLL 1-303) (SEQ ID NO: 3) to TEV protease cleaved mut-MGLL (hMGLL 1-303 L169S, L176S) (SEQ ID NO: 5).
(§2) The Michaelis-Menten parameters for the hydrolysis of 4-methylcoumarin butyrate (4MC-B) and coumarin arachidonate (C-A) substrate were determined using 4-5 nM of MGLL in 20 mM Pipes pH 7 and 150 mM NaCl at 37° C. The change in fluorescence due to substrate hydrolysis was monitored using excitation/emission wavelengths of 335/440 in a Safire II instrument from Tecan. The hyperbolic rates versus substrate concentration curves for the hydrolysis of 4MC-B were fit to the Michaelis-Menten equation using Excel.
The apparent kcat/Km ratio for the hydrolysis of C-A was determined at [S]<<KM. […] The kcat/KM values reported are the average from independent values determined from five substrate concentrations ranging from 700 to 40 nM.

The test system of series [2] is MGLL. The series is described as follows: Michaelis-Menten kinetics, hydrolysis of 4-methylcoumarin butyrate (4MC-B). The class given is biochemical, human. The following applies: substrate 4MC-B; 4-5 nM MGLL, 20 mM Pipes pH 7, 150 mM NaCl, 37° C.; average of 2 or 4 assays.
Description: as §1, §2

For series [3], the system named is MGLL. The series is described as follows: Thermofluor thermal stability assay. It counts as physicochemical, human. The following applies: Thermofluor, 1,8-ANS; for midpoint of the melting transition (Tm): 0.05 mg/ml protein, Pipes pH 7.
Description: (§3) Thermofluor® assays detect small changes in the intrinsic melting temperature of proteins based on binding of ligands. Compounds that interact preferentially with the native form of the protein will increase the Tm, the temperature at which half of the protein is unfolded (Pantoliano et al. 2001). The technique monitors changes in the fluorescent intensity of dyes such as 1-anilinonaphthalene-8-sulfonic acid (1,8-ANS). The fluorescent dyes are quenched in aqueous environments but increase in fluorescence on binding to the hydrophobic core of denatured proteins.
as §3, with “The Thermofluor®” for “Thermofluor®”, “assay is a powerful tool to screen for small molecule inhibitors interacting with a protein's active site or allosteric site. The assay detects” for “assays detect”
Thermofluor® assays were conducted to characterize wt-MGLL (hMGLL 1-303) (SEQ ID NO: 3) and mut-MGLL (hMGLL 1-303 L169S, L176S) and evaluate if the MGLL mutants could be used for high-throughput screening using Thermofluor®. Three microliters of protein at a concentration of 0.05 mg/ml in 50 mM Pipes pH 7, 200 mM NaCl, 100 μM 1,8-ANS, and 0.001% Tween was added to pre-dispensed compound plates. Wells were overlaid with silicone oil (1 μL, Fluka, type DC 200) to prevent evaporation. Final compound concentrations varied from 150 to 0.15 μM. Assay plates were heated at a rate of 1° C./min for all experiments over a temperature range sufficient to measure protein unfolding. Fluorescence was measured by continuous illumination with UV light (Hamamatsu LC6) supplied via fiber optic and filtered through a custom band-pass filter (380-400 nm; >6 OD cutoff). Fluorescence emission was detected by measuring light intensity using a CCD camera (Sensys, Roper Scientific) filtered to detect emission at 500±25 nm, resulting in simultaneous and independent readings of all 384 wells. One or more images were collected at each temperature, and the sum of the pixel intensity in a given area of the assay plate was recorded vs temperature, and fit to standard equations to yield the Tm.
Background: In DSF a fluorescence change marks the thermal transition of the protein.

Series [4] is described as follows: Size exclusion chromatography of protein purified in the absence of detergent. It counts as physicochemical. The method, then:
A pilot purification of wt-MGLL (hMGLL 1-303) (SEQ ID NO: 3), performed in the complete absence of detergent, generated no protein (data not shown). A second purification of wt-MGLL (hMGLL 1-303) (SEQ ID NO: 3) was done with detergent in the lysis buffer only. Frozen cell pellets for wt-MGLL (hMGLL 1-303) (SEQ ID NO: 3) were thawed, resuspended, and lysed in Bugbuster® lysis buffer for 1 hour at 4° C. Bugbuster® lysis buffer is a proprietary lysis buffer from […] that contains detergent. The lysate was clarified by centrifugation at 40,000×g for 1 hr. No detergent was added at this point or during the rest of the purification. From this point forward, the purification protocol and buffers were the same as described below for mut-MGLL. An average of 2.2 mg of wt-MGLL (hMGLL 1-303) (SEQ ID NO: 3) per liter of cell culture was obtained.
Mutant MGLL (mut-MGLL) constructs were purified in the absence of detergent. […] Fractions were analysed by SDS-PAGE. […] Purification yields were determined by Bradford assay using the protein assay kit from BioRad according to manufacturer's instruction with BSA as a standard (Bradford 1976).

Series [5] can be described thus: Circular dichroism (CD) structural analysis. The class given is physicochemical. The following applies: 5 μM protein, 10 mM cacodylic acid pH 7, 140 mM NaCl, 200 to 260 nm. The method, then:
Circular dichroism experiments were performed on a Circular Dichroism Spectrometer Model 202 from Aviv Instruments Inc. The CD scans of wt-MGLL (hMGLL 1-303) (SEQ ID NO: 3) and TEV protease cleaved mut-MGLL (hMGLL 1-303 L169S, L176S) (SEQ ID NO: 5) (5 μM protein in 10 mM cacodylic acid pH 7 and 140 mM NaCl) were measured from 200 to 260 nm. Temperature melts were monitored at 210 nm.
On the technique in general: CD spectra are sensitive to the conformation of chiral molecules.

Consider `CCCCC/C=C/C/C=C\C/C=C/C/C=C/CCCC(=O)Oc1ccc2ccc(=O)oc2c1` [C-A, Coumarin Arachidonate], for which the Michaelis-Menten constant (Km) in the series with MGLL [1] was greater than 30 µM.

B1: wt-MGLL.1-303: wild-type human MGLL isoform 2, amino acids 1-303, with N-terminal His tag and TEV site (protein)
chain: MVDHHHHHHENLYFQGMPEESSPRRTPQSIPYQDLPHLVNADGQYLFCRYWKPTGTPKALIFVSHGAGEHSGRYEELARMLMGLDLLVFAHDHVGHGQSEGERMVVSDFHVFVRDVLQHVDSMQKDYPGLPVFLLGHSMGGAIAILTAAERPGHFAGMVLISPLVLANPESATTFKVLAAKVLNLVLPNLSLGPIDSSVLSRNKTEVDIYNSDPLICRAGLKVCFGIQLLNAVSRVERALPKLTVPFLLLQGSADRLCDSKGAYLLMELAKSQDKTLKIYEGAYHVLHKELPEVTNSVFHEINMWVSQRTATAGTASPP
modifications: N-terminal His tag and TEV site
notes: wild-type human MGLL isoform 2, amino acids 1-303, with N-terminal His tag and TEV site
B1: in the series with MGLL [2], the Kcat is 1.13 s⁻¹ and the Km turned out to be 162 µM. In addition, in the series with MGLL [3], the “quality of Thermofluor melting transition” value was “very poor transition” and the “midpoint of the melting transition (Tm)” value was 58 °C. The “aggregation by size exclusion” value in series [4] is listed as 100%.

B2: mut-MGLL. 1-303, L169S, L176S: human MGLL 1-303 with cap-domain mutations L169S, L176S (protein)
chain: GMPEESSPRRTPQSIPYQDLPHLVNADGQYLFCRYWKPTGTPKALIFVSHGAGEHSGRYEELARMLMGLDLLVFAHDHVGHGQSEGERMVVSDFHVFVRDVLQHVDSMQKDYPGLPVFLLGHSMGGAIAILTAAERPGHFAGMVLISPLVLANPESATTFKVLAAKVLNSVLPNLSSGPIDSSVLSRNKTEVDIYNSDPLICRAGLKVCFGIQLLNAVSRVERALPKLTVPFLLLQGSADRLCDSKGAYLLMELAKSQDKTLKIYEGAYHVLHKELPEVTNSVFHEINMWVSQRTATAGTASPP
As for B2, in the series on MGLL [2], the Kcat was 0.8 s⁻¹ and the Km is 136 µM. In addition, in the series on MGLL [3], the “quality of Thermofluor melting transition” value is “strong transition” and the “midpoint of the melting transition (Tm)” value came to 56.7 °C. For the same molecule, in series [4], the “monomer by size exclusion” value was 90%. Moreover, in series [5], the “CD scan compared with wt-MGLL purified in the presence of detergent” value is listed as “similar”.
